The values below come from patent publication US20110081663A1 (KYOTO UNIVERSITY, published 2011).

The target of the assay is molecular probe of the formula (11) (SEQ ID NO. 11), exendin-4(1-39)-Lys40 with the Lys40 side chain labeled …. As to the kind of experiment: ex vivo autoradiography of pancreas sections of MIP-GFP mice after i.v. injection; radioactivity co-localised with the GFP signal of beta-cells.

B1: GLP-1 receptors of the pancreatic beta-cells (MIP-GFP mice) (receptor)
chain: GPRPQGTTVSLSETVQKWREYRRQCQRFLTEAPLLATGLFCNRTFDDYACWPDGPPGSFVNVSCPWYLPWASSVLQGHVYRFCTAEGLWLHKDNSSLPWRDLSECEESKRGERNFPEEQLLSLYIIYTVGYALSFSALVIASAILVGFRHLHCTRNYIHLNLFASFILRALSVFIKDAALKWMYSTAAQQHQWDGLLSYQDSLGCRLVFLLMQYCVAANYYWLLVEGVYLYTLLAFSVFSEQRIFKLYLSIGWGVPLLFVIPWGIVKYLYEDEGCWTRNSNMNYWLIIRLPILFAIGVNFLIFIRVICIVVSKLKANLMCKTDIKCRLAKSTLTLIPLLGTHEVIFAFVMDEHARGTLRFIKLFTELSFTSFQGLMVAILYCFVNNEVQMEFRKCWERWRLEHLNIQRDCSMKPLKCPTSSVSSGATVGSSVYAATCQSSYS
notes: whole, on cells; Endogenous receptor in mouse pancreas; also called glucagon-like peptide-1 receptor
For the molecule B1, the binding result is reported as “binds”.
